Laboratory results taken from publication PMC12239564.

What was measured:
[1] = target: P. aeruginosa RloA2 (PA0462), residues 18-169 (P. aeruginosa); assay: SEC-MALS; 5 mg/mL (289 µM) protein on Superdex 200 Increase 10/300 in 25 mM Tris-HCl pH 7.5, 300 mM NaCl, 0.7 mL/min
[2] = target: P. fluorescens RloA (Pfl01_1762), residues 20-178 (P. fluorescens); assay: as above

Substance | stoichiometry N [1] | stoichiometry N [2]
P. aeruginosa RloA2 (PA0462), residues 18-169 (enzyme) | 2 | 
P. fluorescens RloA (Pfl01_1762), residues 20-178 (enzyme) |  | 2
